In the supplement of paper PMC9112550, “Optimization of the antimicrobial peptide Bac7 by deep mutational scanning” (BMC Biology, 2022):

System: Escherichia coli TOP10
Test: shrunken log2 fold change of peptide-encoding DNA abundance (4.5 h post-induction vs induction); higher = less antimicrobial activity (less host growth inhibition)
Settings: time post-induction: 4.5 h; library: site-saturation at positions 5, 18, 19, 20
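Also: peptides expressed intracellularly from a pBAD plasmid library in pooled LB shake-flask culture, induced with 0.3% L-arabinose, DNA abundance read by NGS, three biological replicates, DESeq2 with apeglm shrinkage.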

Sequence | shrunken log2 fold change
RRIRWRPPRLPRPRPRPTPVPRP | 0.49
RRIRDRPPRLPRPRPRPIYHPRP | -0.827
RRIRWRPPRLPRPRPRPDFGPRP | -0.0549
RRIRIRPPRLPRPRPRPNATPRP | -0.12
RRIRQRPPRLPRPRPRPAWTPRP | -0.177
RRIRIRPPRLPRPRPRPMIFPRP | -0.266
RRIRCRPPRLPRPRPRPNHPPRP | -0.153
RRIRNRPPRLPRPRPRPDPNPRP | -0.488
RRIRIRPPRLPRPRPRPHKQPRP | -0.0164
RRIRNRPPRLPRPRPRPNWGPRP | -0.0231
RRIRHRPPRLPRPRPRPNFDPRP | -0.0783
RRIRKRPPRLPRPRPRPAEEPRP | 0.906
RRIRRRPPRLPRPRPRPPVCPRP | 0.592
RRIRIRPPRLPRPRPRPTISPRP | -0.385
RRIRARPPRLPRPRPRPDQTPRP | -0.0212
RRIRSRPPRLPRPRPRPPPQPRP | 0.835
RRIRDRPPRLPRPRPRPFCIPRP | -0.0778
RRIRERPPRLPRPRPRPYNDPRP | 0.0352
RRIRDRPPRLPRPRPRPDYYPRP | 0.00235
RRIRHRPPRLPRPRPRPTAEPRP | 0.056
RRIRTRPPRLPRPRPRPQLIPRP | -0.222
RRIRERPPRLPRPRPRPKQIPRP | 0.169
RRIRFRPPRLPRPRPRPTFIPRP | -0.44

Sequence | shrunken log2 fold change
RRIRYRPPRLPRPRPRPIKQPRP | -0.0386
RRIRTRPPRLPRPRPRPYFEPRP | -0.223
RRIRWRPPRLPRPRPRPTKLPRP | 0.156
RRIRNRPPRLPRPRPRPEGLPRP | 0.364
RRIRMRPPRLPRPRPRPKKCPRP | 0.959
RRIRIRPPRLPRPRPRPDVKPRP | -0.147
RRIRMRPPRLPRPRPRPIAWPRP | 0.201
RRIRPRPPRLPRPRPRPDCSPRP | 0.152
RRIRARPPRLPRPRPRPNTFPRP | -0.0206
RRIRERPPRLPRPRPRPGFTPRP | 0.00165
RRIRDRPPRLPRPRPRPFHTPRP | -0.569
RRIRNRPPRLPRPRPRPDRGPRP | -0.0223
RRIRVRPPRLPRPRPRPCPWPRP | 0.0617
RRIRERPPRLPRPRPRPDHSPRP | -0.184
RRIRYRPPRLPRPRPRPTSKPRP | 0.902
RRIRYRPPRLPRPRPRPQRMPRP | -0.74
RRIRWRPPRLPRPRPRPHRSPRP | -0.243
RRIRPRPPRLPRPRPRPNDPPRP | -0.0507
RRIRSRPPRLPRPRPRPVNNPRP | -0.363
RRIRHRPPRLPRPRPRPFSIPRP | -0.392
RRIRLRPPRLPRPRPRPHGMPRP | -0.177
RRIRERPPRLPRPRPRPWDEPRP | 0.0271
RRIRRRPPRLPRPRPRPDVNPRP | 0.0369

Sequence | shrunken log2 fold change
RRIRMRPPRLPRPRPRPNGMPRP | 0.185
RRIRHRPPRLPRPRPRPMIQPRP | -0.0673
RRIRQRPPRLPRPRPRPGRYPRP | -0.205
RRIRERPPRLPRPRPRPHTTPRP | -0.205
RRIRKRPPRLPRPRPRPDRGPRP | 0.0561
RRIRNRPPRLPRPRPRPLMWPRP | -0.175
RRIRHRPPRLPRPRPRPSCKPRP | -0.609
RRIRPRPPRLPRPRPRPSREPRP | 0.113
RRIRWRPPRLPRPRPRPHGHPRP | -0.0213
RRIRRRPPRLPRPRPRPAEVPRP | 0.219
RRIRKRPPRLPRPRPRPQHPPRP | 0.105
RRIRIRPPRLPRPRPRPDQGPRP | 0.0651
RRIRSRPPRLPRPRPRPCNCPRP | 0.0508
RRIRNRPPRLPRPRPRPPCPPRP | 0.309
RRIRVRPPRLPRPRPRPGPNPRP | 0.0445
RRIRVRPPRLPRPRPRPWYLPRP | -0.425
RRIRQRPPRLPRPRPRPLEVPRP | -0.0417
RRIRHRPPRLPRPRPRPMQWPRP | 0.00884
RRIRIRPPRLPRPRPRPFFAPRP | 0.073
RRIRERPPRLPRPRPRPKVNPRP | -0.389
RRIRYRPPRLPRPRPRPLSYPRP | -0.273
RRIRGRPPRLPRPRPRPHAWPRP | 0.595
RRIRQRPPRLPRPRPRPKDKPRP | -0.386

Sequence | shrunken log2 fold change
RRIRARPPRLPRPRPRPGYIPRP | -0.383
RRIRHRPPRLPRPRPRPYCMPRP | -1.05
RRIRNRPPRLPRPRPRPSSYPRP | -0.388
RRIRFRPPRLPRPRPRPWRFPRP | 0.22
RRIRHRPPRLPRPRPRPCWAPRP | 0.00936
RRIRRRPPRLPRPRPRPLMHPRP | 0.292
RRIRDRPPRLPRPRPRPCYRPRP | -0.417
RRIRARPPRLPRPRPRPEHKPRP | 0.0692
RRIRRRPPRLPRPRPRPTCLPRP | 0.099
RRIRRRPPRLPRPRPRPECYPRP | 0.368
RRIRNRPPRLPRPRPRPKRNPRP | -0.189
RRIRYRPPRLPRPRPRPNVMPRP | 0.0307
RRIRQRPPRLPRPRPRPAKCPRP | 0.0161
RRIRGRPPRLPRPRPRPKVDPRP | 3.36
RRIRQRPPRLPRPRPRPWAAPRP | 0.0922
RRIRSRPPRLPRPRPRPVKVPRP | 0.0828
RRIRSRPPRLPRPRPRPAYDPRP | -0.477
RRIRNRPPRLPRPRPRPFGMPRP | 0.0298
RRIRARPPRLPRPRPRPMHSPRP | -0.106
RRIRPRPPRLPRPRPRPLNWPRP | 0.0566
RRIRGRPPRLPRPRPRPICPPRP | 0.114
RRIRERPPRLPRPRPRPLCHPRP | -0.0201
